Biological target: TβRII (TGF-β1 receptor) on PBMC (human (endogenous in PBMC)) (UniProt P37173)
Chain of UniProt P37173 (P37173 23-567): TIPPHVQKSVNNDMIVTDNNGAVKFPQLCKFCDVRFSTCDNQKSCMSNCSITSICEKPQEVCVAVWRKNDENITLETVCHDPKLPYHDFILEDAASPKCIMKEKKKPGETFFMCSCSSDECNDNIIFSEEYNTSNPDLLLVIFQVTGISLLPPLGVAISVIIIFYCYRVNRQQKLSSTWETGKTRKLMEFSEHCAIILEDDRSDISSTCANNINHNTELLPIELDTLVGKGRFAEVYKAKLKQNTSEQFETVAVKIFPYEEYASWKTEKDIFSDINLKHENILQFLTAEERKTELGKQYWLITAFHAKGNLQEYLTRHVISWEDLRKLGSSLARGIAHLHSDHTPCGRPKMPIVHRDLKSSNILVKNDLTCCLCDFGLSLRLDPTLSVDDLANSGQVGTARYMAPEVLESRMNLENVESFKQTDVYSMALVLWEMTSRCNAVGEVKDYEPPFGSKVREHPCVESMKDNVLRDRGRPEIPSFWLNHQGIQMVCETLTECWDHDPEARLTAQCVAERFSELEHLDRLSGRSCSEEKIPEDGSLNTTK

percentage of Tregs (CD4+CD25+Foxp3+, flow cytometry) in PBMC after the peptide at 1 μM, 10 μM and 100 μM (5.43%, 6.67% and 5.90%; untreated 4.94%): 6.67%
B1: pm26TGF-β1 synthetic peptide (peptide)
peptide: ACESPLKRQCGGGS

— PMC4552549
